Earlier results on 2 substances are cited in PMC3951274.

Data set [1] concerns the target α1(I)127-138 THP 127-138 (Homo sapiens) (UniProt P02452).
Data set [2] concerns the target [α2(IV)454-465][α1(IV)437-448] heterotrimeric THP α2(IV)454-465, α1(IV)437-448 (Homo sapiens) (UniProt P02462).
UniProt P02462, sequence (P02462 173-1669, chain 1 of 2): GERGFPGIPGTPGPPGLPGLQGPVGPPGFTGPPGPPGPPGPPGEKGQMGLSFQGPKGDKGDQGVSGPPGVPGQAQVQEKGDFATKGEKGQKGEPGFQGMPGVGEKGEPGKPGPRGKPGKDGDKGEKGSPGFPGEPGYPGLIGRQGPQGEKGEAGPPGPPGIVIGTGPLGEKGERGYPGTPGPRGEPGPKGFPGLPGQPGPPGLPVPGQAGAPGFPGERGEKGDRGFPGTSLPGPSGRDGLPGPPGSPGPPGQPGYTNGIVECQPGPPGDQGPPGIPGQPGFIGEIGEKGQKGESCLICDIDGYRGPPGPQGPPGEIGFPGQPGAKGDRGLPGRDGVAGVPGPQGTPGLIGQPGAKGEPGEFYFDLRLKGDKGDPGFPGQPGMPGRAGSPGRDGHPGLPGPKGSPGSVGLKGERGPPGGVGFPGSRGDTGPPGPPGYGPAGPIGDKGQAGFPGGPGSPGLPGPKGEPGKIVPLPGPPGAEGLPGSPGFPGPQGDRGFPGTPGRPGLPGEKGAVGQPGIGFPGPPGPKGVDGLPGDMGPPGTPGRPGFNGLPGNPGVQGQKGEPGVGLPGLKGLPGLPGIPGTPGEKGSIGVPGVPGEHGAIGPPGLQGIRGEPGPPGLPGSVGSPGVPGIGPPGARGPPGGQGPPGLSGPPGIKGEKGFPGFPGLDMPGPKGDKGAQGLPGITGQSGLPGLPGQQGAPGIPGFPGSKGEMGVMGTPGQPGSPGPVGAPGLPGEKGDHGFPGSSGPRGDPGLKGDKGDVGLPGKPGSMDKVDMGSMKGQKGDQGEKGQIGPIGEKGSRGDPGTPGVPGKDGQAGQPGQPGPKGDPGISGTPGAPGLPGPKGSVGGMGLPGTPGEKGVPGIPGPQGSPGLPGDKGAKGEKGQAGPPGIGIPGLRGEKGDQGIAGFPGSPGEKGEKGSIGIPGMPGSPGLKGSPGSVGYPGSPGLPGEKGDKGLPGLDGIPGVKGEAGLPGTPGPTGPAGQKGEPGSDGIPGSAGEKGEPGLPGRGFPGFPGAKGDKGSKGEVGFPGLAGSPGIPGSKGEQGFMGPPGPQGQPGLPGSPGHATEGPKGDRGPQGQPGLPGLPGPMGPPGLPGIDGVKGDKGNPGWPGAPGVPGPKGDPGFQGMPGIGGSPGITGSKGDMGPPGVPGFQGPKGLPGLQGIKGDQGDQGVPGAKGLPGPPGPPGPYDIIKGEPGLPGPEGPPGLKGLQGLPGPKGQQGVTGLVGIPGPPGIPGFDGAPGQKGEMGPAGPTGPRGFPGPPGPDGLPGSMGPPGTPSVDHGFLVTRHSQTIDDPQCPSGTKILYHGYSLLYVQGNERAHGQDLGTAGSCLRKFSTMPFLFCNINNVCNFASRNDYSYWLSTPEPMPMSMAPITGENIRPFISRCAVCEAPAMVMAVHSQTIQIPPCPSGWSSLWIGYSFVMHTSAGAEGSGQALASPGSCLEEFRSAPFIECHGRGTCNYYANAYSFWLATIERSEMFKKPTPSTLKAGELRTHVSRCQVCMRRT
UniProt P02462, sequence (P08572 184-1712, chain 2 of 2, further chain): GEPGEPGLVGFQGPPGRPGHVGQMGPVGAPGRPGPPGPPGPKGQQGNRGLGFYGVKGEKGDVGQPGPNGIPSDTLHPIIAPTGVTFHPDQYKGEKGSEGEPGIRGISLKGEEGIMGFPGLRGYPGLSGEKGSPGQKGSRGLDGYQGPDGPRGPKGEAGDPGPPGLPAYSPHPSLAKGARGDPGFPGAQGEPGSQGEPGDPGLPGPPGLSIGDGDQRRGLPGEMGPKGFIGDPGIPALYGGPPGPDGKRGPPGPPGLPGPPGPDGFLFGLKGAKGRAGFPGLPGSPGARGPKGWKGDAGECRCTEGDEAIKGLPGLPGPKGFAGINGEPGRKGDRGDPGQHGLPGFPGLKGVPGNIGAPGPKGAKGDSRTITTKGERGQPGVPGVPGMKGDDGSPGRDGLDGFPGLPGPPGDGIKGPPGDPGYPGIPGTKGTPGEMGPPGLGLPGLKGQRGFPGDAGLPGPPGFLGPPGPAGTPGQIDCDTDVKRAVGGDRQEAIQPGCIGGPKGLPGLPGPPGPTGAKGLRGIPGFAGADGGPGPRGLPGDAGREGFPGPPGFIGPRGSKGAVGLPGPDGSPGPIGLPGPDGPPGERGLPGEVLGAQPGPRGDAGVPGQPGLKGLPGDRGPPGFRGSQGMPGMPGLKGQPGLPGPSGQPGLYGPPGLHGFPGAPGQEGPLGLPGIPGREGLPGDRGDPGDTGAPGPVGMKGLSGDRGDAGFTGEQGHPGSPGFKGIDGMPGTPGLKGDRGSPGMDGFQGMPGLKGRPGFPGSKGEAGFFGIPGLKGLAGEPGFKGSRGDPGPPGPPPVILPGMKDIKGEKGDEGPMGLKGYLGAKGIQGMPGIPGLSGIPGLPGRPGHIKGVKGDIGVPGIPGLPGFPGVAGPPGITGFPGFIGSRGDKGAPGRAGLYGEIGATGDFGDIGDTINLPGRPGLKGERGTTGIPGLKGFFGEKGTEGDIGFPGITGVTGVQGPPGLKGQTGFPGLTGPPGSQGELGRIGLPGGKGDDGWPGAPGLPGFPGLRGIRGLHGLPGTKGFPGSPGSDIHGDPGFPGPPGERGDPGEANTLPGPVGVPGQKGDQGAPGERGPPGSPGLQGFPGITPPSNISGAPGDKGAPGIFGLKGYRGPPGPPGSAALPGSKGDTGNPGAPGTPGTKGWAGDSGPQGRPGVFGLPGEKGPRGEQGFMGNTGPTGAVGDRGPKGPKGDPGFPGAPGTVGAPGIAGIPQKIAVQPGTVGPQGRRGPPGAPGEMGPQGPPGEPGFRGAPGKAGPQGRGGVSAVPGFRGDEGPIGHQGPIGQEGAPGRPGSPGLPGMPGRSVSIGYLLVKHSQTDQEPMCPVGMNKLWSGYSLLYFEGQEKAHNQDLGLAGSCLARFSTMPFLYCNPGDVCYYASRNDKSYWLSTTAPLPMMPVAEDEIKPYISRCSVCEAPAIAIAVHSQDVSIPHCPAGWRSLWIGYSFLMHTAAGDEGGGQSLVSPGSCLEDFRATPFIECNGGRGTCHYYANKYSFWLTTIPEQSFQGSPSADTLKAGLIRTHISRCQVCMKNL

For “integrin α2 I-domain (from UniProt P17301)”, the Kd in data set [1] is 0.4 µM.
As to integrin α1β1 (from UniProt P56199), the Kd in data set [2] is 20 µM.
